Test results published in US20170095575A1 (BIOMED VALLEY DISCOVERIES, published 2017).

T1: hTEM8-AP (Homo sapiens, UniProt Q9H6X2 33-321)
T1 sequence: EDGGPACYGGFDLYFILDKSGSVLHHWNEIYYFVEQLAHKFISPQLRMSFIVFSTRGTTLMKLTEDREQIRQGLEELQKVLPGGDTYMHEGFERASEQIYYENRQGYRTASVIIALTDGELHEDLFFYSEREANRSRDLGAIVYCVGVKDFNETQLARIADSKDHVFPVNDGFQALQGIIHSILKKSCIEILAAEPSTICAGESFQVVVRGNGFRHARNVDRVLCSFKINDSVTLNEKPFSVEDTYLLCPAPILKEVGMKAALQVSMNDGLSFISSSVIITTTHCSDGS

T2: mTEM8-Fc (UniProt Q9CZ52 31-319, limits assumed)
T2 construct: not shown: Fc part
T2 sequence (looked up): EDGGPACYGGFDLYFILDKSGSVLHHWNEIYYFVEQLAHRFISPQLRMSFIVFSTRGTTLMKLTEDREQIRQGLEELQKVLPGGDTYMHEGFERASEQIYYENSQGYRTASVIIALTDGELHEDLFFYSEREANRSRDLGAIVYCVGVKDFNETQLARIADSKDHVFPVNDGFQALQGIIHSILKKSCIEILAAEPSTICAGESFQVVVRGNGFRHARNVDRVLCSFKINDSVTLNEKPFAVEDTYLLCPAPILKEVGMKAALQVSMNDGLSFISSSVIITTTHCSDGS


How the values were obtained:
hTEM8-AP = biological target: T1, hTEM8-AP; assay: Biacore affinity measurement of Fab
mTEM8-Fc = biological target: T2, mTEM8-Fc; assay: Biacore affinity measurement of Fab

Kd (hTEM8-AP)	koff (hTEM8-AP)	kon (hTEM8-AP)	Kd (mTEM8-Fc)	koff (mTEM8-Fc)	kon (mTEM8-Fc)	Binder
0.0591 nM	0.00018 s⁻¹	3.05e+06 M⁻¹ s⁻¹	0.0526 nM	8.94e-05 s⁻¹	1.7e+06 M⁻¹ s⁻¹	M825 anti-TEM8 fragment antigen-binding (Fab) (Fab, V domains shown, also called M825 Fab) VH: QVQLVQSGAEVKKPGTSVKVSCKVPGYTFSSYAISWVRQAPGQGLEWMGGIIPIFGTTNYAQKFQGRVTITGEESTSTVYMELSSLRSEDTAVYYCARDTDYMFDYWGQGTLVTVSS VL: SSELTQDPVVSVALGETVSITCQGDNLRDFYASWYQQKPGQAPLLVMYGKNRRPSGIPDRFSGSTSGNTLSLTITGAQAEDEADYYCSSRDNSKHVVFGGGTKVTVL
1.57 nM	0.000953 s⁻¹	607000 M⁻¹ s⁻¹	3.74 nM	0.0029 s⁻¹	775000 M⁻¹ s⁻¹	M830 anti-TEM8 fragment antigen-binding (Fab) (Fab, V domains shown, also called M830 Fab) VH: EVQLVESGGGVVQPGRSVRLSCAASGFTFSTYTMHWVRQAPGKGLEWVAIISNDGSNKYYADPVRGRFTISRDNSKNTLYLQMNSLRAEDTAVYYCVRGSSWYRGNWFDPWGQGTLVTVSS VL: DIQMTQSPSSLSASVGDRVTIACRASQTISRYLNWYQQKPGKAPKLLIYAASSLQSGVSSRFSGSGSGTEFTLTISSLQPEDFATYFCQQTYSPPITFGQGTRLEIKR
